Usually IC50 stands for the midpoint of a concentration-inhibition curve. Read a low IC50 as greater potency. Usually Kd stands for the concentration at which binding is half-saturated.

One experiment concerns the target T1, HIV HR1 polypeptide (Human immunodeficiency virus type 1 group M subtype B, UniProt P04578).
T1 construct: made in house; host or cells: chemical peptide synthesis (no expression host)
Briefly: biochemical. Format: binding. To be noted: for kon: read-out: ka. The method, then:
All surface plasmon resonance measurements were performed on a BIAcore 3000 instrument (GE Healthcare Biosciences AB, Sweden) at 25° C. Chemically prepared HIV HR1 peptide (heptad repeat 1; Biotin-[…] Q-NH2 (SEQ ID NO: 87)) was immobilized on a CM5 biosensor chip according to the manufacturer instructions (GE Healthcare Biosciences AB, Sweden). The fusion polypeptide was diluted to a concentration of 25 nM and injected over 5 minutes at a flow rate of 50 μl/min. Thereafter the protein complex obtained from different combined fractions was diluted into the same buffer to concentrations of 250 nM and 80 nM and injected over 5 minutes at a flow rate of 50 μl/min. Afterwards the sensor chip was regenerated for 1 minute with PBS, pH 8.0, 0.005% (v/v) Tween 20. Data analysis was performed with the BIAevaluation software (BIAcore, Sweden) (see FIG. 4).

For experiment [1], the system named is HIV cell-cell-membrane fusion. Briefly: cell-cell-fusion-assay (CCF-assay), antiviral activity. Format: cell-based. The source says:
The amino acid sequence of fusion polypeptide FP-1 is SEQ ID NO: 76, the amino acid sequence of fusion polypeptide FP-2 is SEQ ID NO: 77, and the amino acid sequence of fusion polypeptide FP-3 is SEQ ID NO: 78. In the fusion polypeptides FP-1 to FP-3 the same serpin-finger polypeptide is conjugated to different HIV fusion inhibitor polypeptides. The fusion polypeptide FP-3 is expressed better in E. coli than FP-2 and in turn FP-2 is expressed better than the fusion polypeptide FP-1. The same sequence of the fusion polypeptides is obtained for the binding to target HIV HR-1 polypeptide (FP-3>FP-2>FP-1) in a BIAcore assay. The same sequence has also been found for the anti-viral activity in a cell-cell-fusion-assay (CCF-assay).

Where [2] appears, read: BIAcore 3000, 25° C., HR1 peptide immobilized on CM5 chip.

Like-named read-outs stand apart in the source and are kept apart here.

T1 sequence (P04578 540-590): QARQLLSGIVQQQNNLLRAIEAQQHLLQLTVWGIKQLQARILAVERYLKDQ

Turning to `CC[C@H](C)[C@H](NC(=O)[C@H](CC(C)C)NC(=O)[C@H](CO)NC(=O)[C@H](Cc1c[nH]cn1)NC(=O)[C@@H](NC(=O)[C@H](CC(C)C)NC(=O)[C@H](CO)NC(=O)[C@@H](NC(=O)[C@H](Cc1ccc(O)cc1)NC(=O)[C@H](CC(N)=O)NC(=O)[C@H](CC(N)=O)NC(=O)[C@@H](NC(=O)[C@H](CCC(=O)O)NC(=O)[C@H](CCCNC(=N)N)NC(=O)[C@H](CC(=O)O)NC(=O)[C@H](Cc1c[nH]c2ccccc12)NC(=O)[C@H](CCC(=O)O)NC(=O)[C@H](CCSC)NC(=O)[C@H](Cc1c[nH]c2ccccc12)NC(=O)[C@@H](NC(=O)[C@@H](N)CCSC)[C@@H](C)O)[C@@H](C)CC)[C@@H](C)O)[C@@H](C)CC)C(=O)N[C@@H](CCC(=O)O)C(=O)N[C@@H](CCC(=O)O)C(=O)N[C@@H](CO)C(=O)N[C@@H](CCC(N)=O)C(=O)N[C@@H](CC(N)=O)C(=O)N[C@@H](CCC(N)=O)C(=O)N[C@@H](CCC(N)=O)C(=O)N[C@@H](CCC(=O)O)C(=O)N[C@@H](CCCCN)C(=O)N[C@@H](CC(N)=O)C(=O)N[C@@H](CCC(=O)O)C(=O)N[C@@H](CCC(N)=O)C(=O)N[C@@H](CCC(=O)O)C(=O)N[C@@H](CC(C)C)C(=O)N[C@@H](CC(C)C)C(=O)O` [T-651, reference compound], on HIV HR1 polypeptide (setting [2]), the kon came to 1.65e+06 M⁻¹ s⁻¹.
Molecule `CC[C@H](C)[C@H](NC(=O)[C@H](CCC(N)=O)NC(=O)[C@H](C)NC(=O)[C@H](CCC(N)=O)NC(=O)[C@H](CCC(=O)O)NC(=O)[C@H](CC(C)C)NC(=O)[C@H](CC(C)C)NC(=O)[C@H](C)NC(=O)[C@@H](NC(=O)[C@@H](NC(=O)[C@H](CCCCN)NC(=O)[C@H](CCC(N)=O)NC(=O)[C@H](CCC(=O)O)NC(=O)[C@H](Cc1c[nH]c2ccccc12)NC(=O)[C@H](CCC(=O)O)NC(=O)[C@H](CCC(N)=O)NC(=O)[C@H](Cc1c[nH]c2ccccc12)NC(C)=O)[C@@H](C)CC)[C@@H](C)O)C(=O)N[C@@H](CCC(N)=O)C(=O)N[C@@H](CCC(N)=O)C(=O)N[C@@H](CCC(=O)O)C(=O)N[C@@H](CCCCN)C(=O)N[C@@H](CC(N)=O)C(=O)N[C@@H](CCC(=O)O)C(=O)N[C@@H](Cc1ccc(O)cc1)C(=O)N[C@@H](CCC(=O)O)C(=O)N[C@@H](CC(C)C)C(=O)N[C@@H](CCC(N)=O)C(=O)N[C@@H](CCCCN)C(=O)N[C@@H](CC(C)C)C(=O)N[C@@H](CC(=O)O)C(=O)N[C@@H](CCCCN)C(=O)N[C@@H](Cc1c[nH]c2ccccc12)C(=O)N[C@@H](C)C(=O)N[C@@H](CO)C(=O)N[C@@H](CC(C)C)C(=O)N[C@@H](Cc1c[nH]c2ccccc12)C(=O)N[C@@H](CCC(=O)O)C(=O)N[C@@H](Cc1c[nH]c2ccccc12)C(=O)N[C@@H](Cc1ccccc1)C(N)=O` [T-1249, reference compound] had a kd on HIV HR1 polypeptide (setting [2]) of 0.00127 s⁻¹.
Regarding `CC[C@H](C)[C@H](NC(=O)[C@H](C)NC(=O)[C@H](CCCNC(=N)N)NC(=O)[C@H](CC(=O)O)NC(=O)[C@H](Cc1c[nH]c2ccccc12)NC(=O)[C@H](C)NC(=O)[C@H](CCC(=O)O)NC(=O)[C@H](Cc1c[nH]c2ccccc12)NC(=O)[C@@H](NC(=O)[C@@H](N)[C@@H](C)O)[C@@H](C)O)C(=O)N[C@@H](C)C(=O)N[C@@H](CCC(=O)O)C(=O)N[C@@H](Cc1ccc(O)cc1)C(=O)N[C@@H](C)C(=O)N[C@@H](C)C(=O)N[C@@H](CCCNC(=N)N)C(=O)N[C@H](C(=O)N[C@@H](CCC(=O)O)C(=O)N[C@@H](C)C(=O)N[C@@H](CC(C)C)C(=O)N[C@H](C(=O)N[C@@H](CCCNC(=N)N)C(=O)N[C@@H](C)C(=O)N[C@@H](C)C(=O)N[C@@H](CCC(N)=O)C(=O)N[C@@H](CCC(=O)O)C(=O)N[C@@H](CCC(N)=O)C(=O)N[C@@H](CCC(N)=O)C(=O)N[C@@H](CCC(=O)O)C(=O)N[C@@H](CCCCN)C(=O)N[C@@H](CC(N)=O)C(=O)N[C@@H](CCC(=O)O)C(=O)N[C@@H](C)C(=O)N[C@@H](C)C(=O)N[C@@H](CC(C)C)C(=O)N[C@@H](CCCNC(=N)N)C(=O)N[C@@H](CCC(=O)O)C(=O)N[C@@H](CC(C)C)C(=O)O)[C@@H](C)CC)[C@@H](C)CC` [T-2635, reference compound], the kon on HIV HR1 polypeptide worked out at 1.11e+06 M⁻¹ s⁻¹.
In experiment [1], “FP-2: SEQ ID NO: 77=GR+SEQ ID NO: 82+SEQ ID NO: 75+SEQ ID NO: 13; serpin-finger, linker, T-651 (GRGTEAAGAMFLEAIPMSTTWMEWDKEINNYTSLIHSLIEESQNQQEKNEQELL)” showed an IC50 of 330 nM. Further, in the experiment with HIV HR1 polypeptide, the KA was determined as 1.08e+10 M⁻¹; the affinity, expressed as Kd, was 0.0924 nM; the ka was 1.29e+06 M⁻¹ s⁻¹; the kd was 0.000119 s⁻¹.

B1: FP-1: SEQ ID NO: 76=GR+SEQ ID NO: 05+SEQ ID NO: 52+SEQ ID NO: 37; serpin-finger, linker, T-1249 (protein)
chain: GRTEAAGAMFLEAIPMSGGGGSGGGGSGGGGTWQEWEQKITALLEQAQIQQEKNEYELQKLDKWASLWEWF
As for B1, half-maximal inhibition in experiment [1] (IC50) was put at 700 nM. In the experiment with HIV HR1 polypeptide, this molecule yielded a KA of 6.29e+08 M⁻¹, a Kd of 1.59 nM, a ka of 227000 M⁻¹ s⁻¹ and a kd of 0.000361 s⁻¹.

B2: FP-3: SEQ ID NO: 78=GR+SEQ ID NO: 83+SEQ ID NO: 50+SEQ ID NO: 40; serpin-finger, linker, T-2635 (protein)
chain: GKSGTEAAGAMFLEAIPMSGGGGSGGGGSGGGGTTWEAWDRAIAEYAARIEALIRAAQEQQERNEAALREL
B2: in experiment [1], the midpoint of inhibition, the IC50, lay at 200 nM. In the experiment with HIV HR1 polypeptide, this molecule had a KA of 3.22e+10 M⁻¹, a Kd of 0.031 nM, a ka of 991000 M⁻¹ s⁻¹ and a kd of 3.07e-05 s⁻¹.

The record behind these values is US9403896B2, “Serpin-finger fusion polypeptide” (Hoffmann-La Roche Inc., priority 2010, dated 2016).
